Data from the supplement of paper PMC9170038.

System: MS2 coat protein
Assay: apparent KD of MS2 coat protein; designed switch direction (-1 OFF switch, 1 ON switch): -1; higher = weaker reporter binding
Summary of the method: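 The buffer was Tris-HCl pH 7.5 with KCl, MgCl2, BSA, DTT, tRNA and Tween-20. In it, SNAP-549-labelled MS2 coat protein was titrated in doubling steps from 0.7 or 1.5 nM to 3 µM over chip-bound RNA switches transcribed by stalled E. coli RNA polymerase on Illumina chips. Apparent KD is the per-design median over clusters of curve fits to normalised fluorescence.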

[1] = input ligand: microRNA oligo, concentration not stated
[2] = Eterna round: R95, input ligand: FMN 200 uM
[3] = Eterna round: R95, input ligand: microRNA oligo, concentration not stated
[4] = Eterna round: R95, input ligand: none

Sequence	apparent KD of MS2 coat protein (input ligand: FMN 200 uM) [nM]	apparent KD of MS2 coat protein (input ligand: none) [nM]	apparent KD of MS2 coat protein [1] [nM]	apparent KD of MS2 coat protein [2] [nM]	apparent KD of MS2 coat protein [3] [nM]	apparent KD of MS2 coat protein [4] [nM]
AUUAGCGUAGGAUAUUGAUACAUGUACAUGAGGAUCACCCAUGUGAGGUGAGUCUUGGAUUAAGAAGGGCGAAGAA [EX5 #37] (Eterna round: R97, puzzle: Exclusion 5)	1080	1270				
ACAUGAGGAUCACCCAUGUUAACGAAAAGGCUCAUGUAGAGUGAGGAUAUGUGAGACGAACGAGAACAGAAGGCACAAGACAGG [Deportation 2 - Jieux - Exclusion NG 3] (Eterna round: R96, puzzle: Exclusion NG 3)	24.2	22.3	15.2			
CAACGAAGUCGAGGAUAUGCCCACUCCGCAGCGGCAGAAGGCGACAUGAGGAUCACCCAUGUAACGGCUAACGGGAUGGGAAGG [Eternabot solution 7] (Eterna round: R96, puzzle: Exclusion NG 1)	162	25.9	17.7			
UGGUCACAUGAGGAUCACCCAUGUCAGGAUAUCUACAUUGAAGCCUCGGCUUCAAUGUAGAGAAGGGACAUAAU [E1/6-B2] (Eterna round: R97, puzzle: Exclusion 1)	121	265				
AGUACUGACACGUUGGUGUUAGUACAAUAAGCUUGUGAUACAUGAGGAUCACCCAUGUCCUCAUAAGCUCGUCUUAU [salish99_TOv2_r2_093] (puzzle: Sensor v3, turn-off variant 2)				26.1	881	21.1
UAACAUGUACAAGGAUAUCAGCACGAUUAGUGCUGAGAAGGUGUAACAUGAGGAUCACCCAUGUAGAUCAUUAAUUAAUUAAUU [ENG1/9-B1] (Eterna round: R96, puzzle: Exclusion NG 1)	319	56.6	60.9			
GGAAGGCGAGGAUAUGCAAUAAUACACUAAUUAAUGUGAAAACAUGAGGAUCACCCAUGUAGAAGGCGCGAGAA [AK-MS2ROC-r4-exclusion2-5] (Eterna round: R97, puzzle: Exclusion 2)	21.2	20.7				
GUGAGGUAAGGAUAUAGUAGUGAAGGUAAAAUAUGAGAAUGCUAGAAGGUACAUGAGGAUCACCCAUGUUAGGG [JR_Exclu4_Sub088] (puzzle: Exclusion 4)					146	
GUAAUUAAUGUAGGAUAUGCAAGGCGAACCUAAGCAGAAGGAACAUGAGGAUCACCCAUGUAUGCGGUCUGCGUACAGAUCGCU [salish99_ExNG1_r4_004] (Eterna round: R96, puzzle: Exclusion NG 1)	15.1	19.7	13.3			
UUGAAACAUACCUCCAUAAACAUGAGGAUCACCCAUGUAAGUGAGGAUAUAGAUUGAUUAGUAUACUAGAAGGCACUUAGAUAU [JR_ExcNG3_Sub043] (Eterna round: R96, puzzle: Exclusion NG 3)	10.4	10.5	10.8			
AGUAACUAUCACGAAAGUGAUAGUUACAACAAGUGAUAAACAUGAGGAUCACCCAUGUCCUCAUUUGUUCGUCUUAU [Sensor 3 - 14] (puzzle: Sensor v3, turn-off variant 2)				240	373	225
AGUACUAACACGCGUGUGUUAGUACAAUAAGCUUGUGAAACAUGAGGAUCACCCAUGUCCUCAUAAGCUCGUCUUAU [salish99_TOv2_r3_076] (puzzle: Sensor v3, turn-off variant 2)				15.7	608	13.7
ACCUCACUUGAGGAUCACCCAAGUCAGGAUAUACUCGUUUGCCGCACGACGCGGCAUUGUAGAAGGGACGGGUU [Arveatat] (Eterna round: R97, puzzle: Exclusion 1)	35.1	17.9				
AUAGUAGAAGUGAGGAUAUCGUAGAUUUUAGGAAACGAGAAGGCACAUGAGGAUCACCCAUGUAAGAUGGAGGU [JR_BMOE4_Sub051] (Eterna round: R96, puzzle: Brourd's mod of Exclusion 4)	380	132	126			
GUAAAACAUGUAGGAUAUGCGUGGCAAAGCUAUGCAGAAGGACAUGAGGAUCACCCAUGUUAAAGCGUCUGCGUACAGAUGCAA [Mat - Exclusion NG 1 - Mod of JL - D95] (Eterna round: R96, puzzle: Exclusion NG 1)	143	30.7	30.5			
